The record followed here is patent publication US20200199177.

Data set [1] concerns T1, (AcDEVD)K-pNA.
T1 sequence: DEVD

The test system of data set [2] is T2, (AcDVED)K-pNA.
T2 sequence: DVED

For data set [3], the system named is T3, AcDEVD-pNA.
T3 sequence: DEVD

In data set [4] the test system is T4, (AcIEPD)K-pNA.
T4 sequence: IEPD

Data set [5] deals with T5, AcIEPD-pNA.
T5 sequence: IEPD

Data set [6] concerns T6, CAAK(F)-diamino-pNA.
T6 sequence: CAAK

The subject of data set [7] is T7, (AcAAF)K-pNA.
T7 sequence: AAFK

In data set [8] the test system is T8, (AcFG)K-pNA.
T8 sequence: FGK

The target of data set [9] is T9, (AcFG)K-pNA (not fully specified).
T9 chain: FGK

Take Caspase 3: in [1], the “absorbance increase at 405 nm (pNA release), 125 uM substrate first with caspase-3 then with trypsin, over 60 minutes” value worked out at 0.1±0.006 AU and the “pNA release relative to the commercial substrate AcDEVD-pNA” value is “pNA release from our substrate corresponded to 83% of the release from the commercial substrate”. In addition, the “pNA release with trypsin and caspase 3” value in data set [2] was “no pNA release occurred when (AcDVED)K-pNA (SEQ ID NO: 2) was incubated with trypsin and caspase 3”. Besides, the “pNA release on caspase 3 digestion” value in data set [3] was “both substrates are digested efficiently by caspase 3”.

Take Caspase 8: the “absorbance increase at 405 nm, 500 uM substrate with caspase 8 for 24 hours before adding trypsin” value in [1] is reported as “did not result in a significant absorbance increase”. Besides, the “absorbance increase at 405 nm (pNA release) with caspase 8 and trypsin” value in data set [4] was “little to no absorbance increase in the presence of caspase 8 and trypsin”. The “caspase 8 activity on single enzyme substrate (absorbance, pNA release)” value in data set [5] and in [3] was “cleaved as expected” each time.

For Chymotrypsin, the “pNA release (absorbance at 405 nm), 2 mM peptide with trypsin and/or chymotrypsin, 90 minutes at 37 C” value in [6] was 55% of the theoretical pNA was released after 90 minutes of incubation. Moreover, in [7], the “absorbance increase at 405 nm (pNA release), 50 uM substrate with chymotrypsin and trypsin, after five hours” value amounted to 0.039±0.003 AU; the “absorbance increase at 405 nm (pNA release), 100 uM substrate with chymotrypsin and trypsin” value came to 0.070±0.002 AU; the “absorbance increase at 405 nm (pNA release), 200 uM substrate with chymotrypsin and trypsin” value was determined as 0.147±0.002 AU.

Consider Trypsin, for which the “absorbance increase at 405 nm (pNA release) with trypsin only” value in data set [1] is “In the presence of trypsin or caspase 3 only, no absorbance increase was observed as expected”. In data set [8], the “pNA release (absorbance at 405 nm) with trypsin only” value is reported as “no absorbance increase was observed when the substrate was incubated with each enzyme separately”. Further, the “absorbance increase at 405 nm (pNA release), 100 uM peptide with trypsin only” value in data set [7] was “a minimal absorbance increase (0.016±0.002 AU) was observed when 100 µM peptide was incubated with trypsin only”.

B1: Papain (protein)
chain: IPEYVDWRQKGAVTPVKNQGSCGSCWAFSAVVTIEGIIKIRTGNLNEYSEQELLDCDRRSYGCNGGYPWSALQLVAQYGIHYRNTYPYEGVQRYCRSREKGPYAAKTDGVRQVQPYNEGALLYSIANQPVSVVLEAAGKDFQLYRGGIFVGPCGNKVDHAVAAVGYGPNYILIKNSWGTGWGENGYIRIKRGTGNSYGVCGLYTSSFYPVKN
Consider B1, for which the “pNA release (absorbance at 405 nm) with papain and trypsin” value in data set [9] was “In the presence of papain and trypsin, pNA release from the substrate was observed to be substrate dependent”.
